Experimental data published in article PMC13430412.

Experiments:
[1] = target: Rab7A(Q67L)-6xHis (human) (UniProt P51149); experiment: liposome co-flotation; purified VPS13C constructs with SUVs (5% DGS-NTA) bearing His-tagged protein, 1 mM GTP, 2 mM Mg2+, room temperature 20 min; OptiPrep gradient, top fraction by SDS-PAGE
[2] = target: Strep-tagged Rab7A (Q67L) (human) (UniProt P51149); experiment: pull-down; Strep-Rab7A(Q67L) and FLAG-tagged VPS13C constructs co-expressed in Expi293F; lysate (buffer A with 1 mM GTP, 2 mM MgCl2) on Strep-Tactin XT resin, eluted with biotin; SDS-PAGE with Coomassie and/or anti-FLAG western blot
Chain of Strep-tagged Rab7A (Q67L) (human) (P51149 whole entry Q67L): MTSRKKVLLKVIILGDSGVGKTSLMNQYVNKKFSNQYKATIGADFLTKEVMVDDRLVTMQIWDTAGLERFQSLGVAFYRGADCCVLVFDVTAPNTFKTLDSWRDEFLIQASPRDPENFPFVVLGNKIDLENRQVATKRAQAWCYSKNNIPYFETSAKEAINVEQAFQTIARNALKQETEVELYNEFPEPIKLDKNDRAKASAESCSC

Chain of Rab7A(Q67L)-6xHis (human) (P51149 whole entry Q67L): as above

fraction co-floated with SUVs bearing His-tagged Rab7A [1]	fraction of total overexpressed VPS13 retained [2]	Substance
> 80%	–	VPS13C-ΔATG2C-3xFLAG, Q709C8 1-3753
–	5%	VPS13C-3XFLAG (full-length human VPS13C with a C-terminal 3xFLAG tag), Q709C8 1-3753
